Experimental data published in patent US20260049148.

Target: internally quenched peptide probe (MCA)-Gly-Ser-Ala-Ile-Ala-Leu-Tyr-Gly-Gly-Ser-Lys (DNP)-D-Arg with CM AIALY (SEQ ID NO: 5)

B1: human recombinant MMP2 (R&D Systems, catalog No: 902-MP) (protein)
chain: YNFFPRKPKWDKNQITYRIIGYTPDLDPETVDDAFARAFQVWSDVTPLRFSRIHDGEADIMINFGRWEHGDGYPFDGKDGLLAHAFAPGTGVGGDSHFDDDELWTLGEGQVVRVKYGNADGEYCKFPFLFNGKEYNSCTDTGRSDGFLWCSTTYNFEKDGKYGFCPHEALFTMGGNAEGQPCKFPFRFQGTSYDSCTTEGRTDGYRWCGTTEDYDRDKKYGFCPETAMSTVGGNSEGAPCVFPFTFLGNKYESCTSAGRSDGKMWCATTANYDDDRKWGFCPDQGYSLFLVAAHEFGHAMGLEHSQDPGALMAPIYTYTKNFRLSQDDIKGIQELYGASPDIDLGTGPTPTLGPVTPEICKQDIVFDGIAQIRGEIFFFKDRFIWRTVTPRDKPMGPLLVATFWPELPEKIDAVYEAPQEEKAVFFAGNEYWIYSASTLERGYPKPLTSLGLPPDVQRVDAAFNWSKNKKTYIFAGDKFWRYNEVKKKMDPGFPKLIADAWNAIPDNLDAVVDLQGGGHSYFFKGAYYLKLENQSLKSVKFGSIKSDWLGC
  Probe Cleavage (kcat/KM): 39000 M⁻¹ s⁻¹
  Probe Cleavage (pM/s): 135 pM/s
